Test: Adhesion force of ovalbumin particles to PDMS 40 by centrifugation
Type: physicochemical
Description: Ovalbumin particles with an average diameter of 10 μm were attached to a plate with a diameter of 0.5 cm containing a PDMS 40 adhesive layer. Next, the plate was placed in a centrifuge tube. After centrifuging the tube at 27,000 g (Centrifuge, 1730R, LABOGENE, South Korea) for 10 min, the plate was weighed using a high-precision balance (Satorius SE2-F, Gottingen, Germany), and the amount of ovalbumin particles separated from the surface of PDMS 40 during centrifugation was calculated.

B1: ovalbumin particles: Ovalbumin particles with an average diameter of 10 μm attached to a plate containing a PDMS 40 adhesive layer (protein, UniProt P01012 2-386, looked up)
Ovalbumin: GSIGAASMEFCFDVFKELKVHHANENIFYCPIAIMSALAMVYLGAKDSTRTQINKVVRFDKLPGFGDSIEAQCGTSVNVHSSLRDILNQITKPNDVYSFSLASRLYAEERYPILPEYLQCVKELYRGGLEPINFQTAADQARELINSWVESQTNGIIRNVLQPSSVDSQTAMVLVNAIVFKGLWEKAFKDEDTQAMPFRVTEQESKPVQMMYQIGLFRVASMASEKMKILELPFASGTMSMLVLLPDEVSGLEQLESIINFEKLTEWTSSNVMEERKIKVYLPRMKMEEKYNLTSVLMAMGITDVFSSSANLSGISSAESLKISQAVHAAHAEINEAGREVVGSAEAGVDAASVSEEFRADHPFLFCIKHIATNAVLFFGRCVSP
modifications: particles
notes: Ovalbumin particles with an average diameter of 10 μm attached to a plate containing a PDMS 40 adhesive layer
- Initial ovalbumin particles remaining on the surface of PDMS 40 (27,000 g for 10 min, pressure 0.2 N/cm^2, average diameter 10 μm): 96%
- Vertical adhesion force between ovalbumin particles and PDMS 40 (from centrifugation at 27,000 g): more than 0.2 N/cm^2

From patent US20230218875A1, “PARTICLE-ATTACHED MICRONEEDLE AND METHOD OF MANUFACTURING THE SAME” (QuadMedicine, Inc., priority 2022, published 2023)
